Source: patent publication US20260069707A1, “COMBINATION THERAPY WITH ANTIBODY-DRUG CONJUGATES AND HYALURONIDASES” (HALOZYME, INC., priority 2024, published 2026)

Assays:
[1] = Calculation of free payload:ADC following ADC administration
Experimental: Antibody drug conjugates with thiol-malimide conjugation undergo deconjugation following administration. To assess this deconjugation, free payload: ADC was calculated rather than reverse, because for completely stable antibody, ADC:free payload would be infinity.
Antibody drug conjugates with thiol-malimide conjugation undergo deconjugation following administration. To assess this deconjugation, free payload: ADC was calculated for specific antibody drug conjugates including Trastuzumab, Polatuzumab, Enfortumab and Tisotumab.

[2] = Post-injection bleb volume, area, height - caliper measurement; type: in vivo, Yucatan miniature pig (Sus scrofa domestica); conditions: Example 8: dupilumab 2 mL; dupilumab + rHuPH20 5 mL; T0
Experimental: (§1) The needle was inserted vertically into the marked injection site and the HVAI held in place by hand. Target needle insertion depth was ˜10 mm. Injections were timed using a stopwatch. Upon completion of the injection the needle was removed and the HVAI device discarded. Test solution back-leakage was then absorbed to a tared eye-spear for 30 seconds on the injection site and the weight of the eye spear was measured using an analytical balance. The margins of the injection site bleb were marked with a permanent marker and measured for length, width, and height using a digital caliper and recorded then photographed with the standard and 3D cameras. Caliper measurements and photographs were taken immediately post-injection. Local injection sites were qualitatively assessed and graded daily for erythema severity, swelling size appearance, and firmness, using a scoring system described in Table 4 Table 5, and Table 6, respectively.
Assessment of Local Swelling Volume and Area Using Caliper Measurement and 3D Imaging. Volume and area of post-injection swelling were measured using both caliper measurement and 3D camera image analysis. For caliper measurements a digital caliper was utilized to measure length, width and height of the bleb that formed post-injection. The length and width are defined as the edge to edge measurements of the bleb (i.e., diameter) along their longest axes. These values were manually recorded, and the volume determined using the formula for half of an ellipsoid Vol=(⅔)*π*A*B*C where A=Length/2, B=Width/2 and C=Height.
Assessment of Post-Injection Bleb Volume, Area and Height (Caliper Measurements). The local injection site swelling (bleb) was marked and measured using a digital caliper.

[3] = Qualitative assessment of local injection sites (erythema, swelling size, induration); type: in vivo, Yucatan miniature pig (Sus scrofa domestica); conditions: Example 8: dupilumab 2 mL; dupilumab + rHuPH20 5 mL; T0, three evaluators
Experimental: as §1
Approximately, 24 hours post-dosing of the first injection, each animal was re-anesthetized, and injection sites assessed for erythema, induration and swelling, then photographed and returned to its cage.

[4] = Calculation of drug to antibody ratio (DAR); conditions: for ADC:free Ab / free Ab:ADC: after adjustment factor
Excerpt: The Drug-to-Antibody Ratio (DAR) is a critical parameter in antibody drug conjugate development, representing the average number of drug molecules attached to each antibody molecule.

[5] = Concentration (weight/mL) basis, unconjugated MMAE/antibody conjugated MMAE over 21 days
[6] = Molar basis, Using molecular weight for the entire linker
[7] = Molar basis, different tumor (line after the one using molecular weight for the entire linker)
[8] = Molar basis, unconjugated MMAE/antibody conjugated MMAE over 21 days
[9] = Concentration (weight/mL) basis, Unconjugated MMAE/ADC over 28 days
[10] = Molar basis, Unconjugated MMAE/ADC over 28 days
[11] = Molar basis, Using molecular weight for the entire linker, MMAE/ADC over 28 days
[12] = Concentration (weight/mL) basis
[13] = Molar basis, second line, Unconjugated MMAE/ADC over 21 days

## Polatuzumab vedotin (Polivy)
[1]; [5]
  free payload: ADC, AUC: 1.52%
  free payload: ADC, Cmax: 0.46%
[1]; [6]
  free payload: ADC, AUC: 173.1%
  free payload: ADC, Cmax: 52.8%
[1]; Molar basis, different tumor
  free payload: ADC, AUC: 257.1%
  free payload: ADC, Cmax: 87.2%
[1]; [7]
  free payload: ADC, AUC: 140.2%
  free payload: ADC, Cmax: 47.5%
[1]; [8]
  free payload: ADC, AUC: 317.5%
  free payload: ADC, Cmax: 96.9%

## Enfortumab vedotin (Padcev)
[1]; [9]
  free payload: ADC, AUC: 0.08%
  free payload: ADC, Cmax: 0.02%
[1]; [10]
  free payload: ADC, AUC: 16.4%
  free payload: ADC, Cmax: 4.2%
[1]; [11]
  free payload: ADC, AUC: 8.9%
  free payload: ADC, Cmax: 2.3%

## Tisotumab vedotin (Tivdak)
[1]; [12]
  free payload: ADC, AUC: 0.09%
  free payload: ADC, Cmax: 0.01%
[1]; Molar basis
  free payload: ADC, AUC: 18.5%
  free payload: ADC, Cmax: 3.1%
[1]; [13]
  free payload: ADC, AUC: 10.1%
  free payload: ADC, Cmax: 1.7%

## dupilumab
[2]
  Post-injection bleb Area, caliper (Mean ± SEM): 13.1 ± 1.4
  Post-injection bleb Volume, caliper (Mean ± SEM): 7.0 ± 1.8
[3]
  Induration Score (Mean ± SEM): 2.4 ± 0.4
  Swelling Score (Mean ± SEM): 1.4 ± 0.2

## mirvetuximab soravtansine
[4]; Day 1
  % DAR remaining (which may be ~ADC/ total Ab): 88.4%
  % DAR remaining after adjustment factor to allow for variability (line without head): 70.7%
  ADC:free Ab: 241.3%
  free Ab:ADC: 41.4%
[4]; Day 7
  % DAR remaining (which may be ~ADC/ total Ab): 32.6%
  % DAR remaining after adjustment factor to allow for variability (line without head): 26.0%
  ADC:free Ab: 35.2%
  free Ab:ADC: 283.9%
